Molecular target: purified recombinant human surfactant protein A (human, UniProt Q8IWL2, 125I radioiodination using chloramine T)
Assay: ligand blot of lysogen proteins (SDS-PAGE, PVDF, 125I-SP-A)

binding result: binds
B1: recombinant porcine SP-A recognition protein (SPAR) encoded by the 1.8-kb porcine lung cDNA, expressed from lambda gt11 in E. coli Y1089 (receptor)
chain: MDMCYGMMGSLFRSGSRQTLFASQVMRYADLYAASFINLLYYPFSYLFRAAHVLMPHESTVEHTHVDINEMESPLATRNRTSVDFKDTDYKRHQLTRSISEIKPPNLFPLAPQEITHCHDEDDDEEEEEEEEECGGKPKLSALIKQVLAGLTGAKAVSLWVLVGGGGLHQRYILESFLKTLKYSNHREILVLVFCICTLCSWFRIVRESVSEERKGQAGLNCMQLAPLWFVTLFHHQYIIVYPETRRVVEGPRVKQRQWEEVIQKCYGTNWALTTKTHLFQCIT
